{"source": "paper PMC4877379", "note": "Residue numbers refer to the chain shown, from its start."}
{"molecular_target": "T1, CodY (B. cereus INRA C3) (Bacillus cereus INRA C3) (UniProt Q819X8)", "T1 sequence": "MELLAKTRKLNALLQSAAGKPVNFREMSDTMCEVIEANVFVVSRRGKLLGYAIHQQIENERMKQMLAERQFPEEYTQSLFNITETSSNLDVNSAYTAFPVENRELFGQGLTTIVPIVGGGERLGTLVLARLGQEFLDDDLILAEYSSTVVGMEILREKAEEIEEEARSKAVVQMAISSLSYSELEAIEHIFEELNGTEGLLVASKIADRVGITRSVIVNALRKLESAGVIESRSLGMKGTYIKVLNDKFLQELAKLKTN", "assay": "EMSA", "units": {"Kd": "nM"}}
{"substance": "AAATTATCGATCGTAATCGACAAAATTTTTCTATTTACGCATTAAAAATTTAATGTTTTAATGAACAACATAACTGGTATGACCAGACAGAAAGGATAAGGTTACGCTAATAGGAATTATAGTGAAGTTGTAAGTAACATTATGTTGAAAATATTTTTCGAATAGTCTATTTATTTACAAGAGGTCAAGAATCAAGTTTGTAATAAACGTGTTCTAAGTTTCTGCATAACAAAAGTGAAGTTATTCCGCAATAAAAGTATAAGCGATGTACAGTATAATTTTACCTTTTTTAGTCTAGTAAGGAGTTTGCTGA (double strand) [Phbl-2]", "Kd": 250}
{"substance": "AATAATGATATTAGGATGTTTTGTGAAAAAATCAACAATATAACATATATTACTAAATATATCTACATTTTATGCAATTATACATAACTAAATAAAGGTAAAAAAGTATAAAAAGACCTATTATATTATTCTATAAGTATTTTTTCTAAAATAAAATTTCTCGGTTGAGCTAAAATAGTTATTTTTAACCGTATACACATTAATTTGTAATCATTACAATTACAGAAATGAAATTTACGGATAACTATATTTGTATAATTTTTTTCGGTTCATATTTTTATTTAACAGTAAATTATCGATCGTAATC (double strand) [Phbl-1]", "Kd": 700}
{"substance": "ATCCGAATTCTGTATATGCTATGCATAATTGCATACGGGGTTAAAAATTATATCAATATAATTTTACCGGTTGTTTGCAAGTAGTGTTTTCTGTTGTGATATGTAGATATTTCAATCGATAAAGTGAATCGGATTATATTTTGAAATAAGGACATGAAAGCTTGAAAATAAAGGGAATGAAAATACTTCTTTACGTTATATAAACAGCTGTGTTTAAATGACCTTACAGTACAAAACTTATATGAAAACAAAACGAAATTTCATATTTACGTATGTTGTTTGGTTTAAAATGAATAATATTTTTATGTAATATATTCACTGTGTGAATGTGGGAATTTCGATGAAATAGAAAATTTATACAATATTATTCATACTAAACACATATGAAAAGTTTTATAACAATAAGTAAGTACTGTAGCAATAACAGTTGGGAGAGATGGTTCATACATAGATCACGGTGAGAACGTTCTCTATTTTAACCATCTCAAATTATGGGCAAGAAAATAGAATAATAAAATGCGATAGTAATAGTTGCTAATACATAGGAGGAGTTAAAGTGGATCCGACT (double strand) [Pnhe INRA C3]", "Kd": 125}
{"substance": "CAAGTTTGTAATAAACGTGTTCTAAGTTTCTGCATAACAAAAGTGAAGTTATTCCGCAATAAAAGTATAAGCGATGTACAGTATAATTTTACCTTTTTTAGTCTAGTAAGGAGTTTGCTGATAAAACTAAGAGTAATATTATTAAATTTAAATTAAACAATGTTATGGCAAGATTAACTGTAAGCATTGGTTTATTGATTCTCGCGGTTCTGTAAGTTAAACCGCAATTCTAGGGAAGAATTACACATTTACTATTCATAGGGTGCTTGATTCAAATATAGTTAATAAATTTTTGTTATTTATATTTGAAAAAATAGAGTATCGAAGTGAGAGG (double strand) [Phbl-4]", "Kd": 700}
{"substance": "PcytK-2", "Kd": "> 1000"}
{"substance": "PinhA1 INRA C3", "Kd": 250}
{"substance": "TCTAGTAAGGAGTTTGCTGATAAAACTAAGAGTAATATTATTAAATTTAAATTAAACAATGTTATGGCAAGATTAACTGTAAGCATTGGTTTATTGATTCTCGCGGTTCTGTAAGTTAAACCGCAATTCTAGGGAAGAATTACACATTTACTATTCATAGGGTGCTTGATTCAAATATAGTTAATAAATTTTTGTTATTTATATTTGAAAAAATAGAGTATCGAAGTGAGAGGTAAGTAAAATCCTTACATTCTATTAGAAGTAAAAAATAACGATATTATCCTATCTGAAAGATTTCTCCTTCTTAATCAGTTTACAAAGAGAGAGGTCATACAAGTTATATGAATTAAGTTATAAAAACAATGGTAAAGGAGTGTACGGAAT (double strand) [Phbl-3]", "Kd": 700}
{"molecular_target": "T2, CodY (B. cytotoxicus CVUAS 2833) (Bacillus cytotoxicus CVUAS 2833) (UniProt A7GRF8)", "T2 sequence": "T1 sequence with S78N, I82V, A94E, R103K, E104D, Q133R, S147A, Q251H", "assay": "EMSA", "units": {"Kd": "nM"}}
{"substance": "PcytK-1", "Kd": "> 1000"}
